The values that follow are results of earlier work, collected in PMC6704176.

For orientation: Kd means the free concentration of one partner at which half of the binding sites on the other are occupied at equilibrium, for simple one-to-one binding.

The data set deals with SRSRY (uPAR-derived peptide) (Homo sapiens).

Consider FPR1 (from UniProt P21462), for which the dissociation constant (Kd) was 0.03 µM.
